T1: P467_RHIPU, purified, C-terminal StrepII-8xHis tag (Rhipicephalus pulchellus, UniProt L7M8Z8 22-127)
T1 sequence: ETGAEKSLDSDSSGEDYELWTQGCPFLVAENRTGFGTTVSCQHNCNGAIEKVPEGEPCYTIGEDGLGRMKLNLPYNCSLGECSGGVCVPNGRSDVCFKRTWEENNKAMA

T2: P991_AMBCA, purified, C-terminal StrepII-8xHis tag (Amblyomma cajennense, UniProt A0A023FFD0 29-136)
T2 sequence: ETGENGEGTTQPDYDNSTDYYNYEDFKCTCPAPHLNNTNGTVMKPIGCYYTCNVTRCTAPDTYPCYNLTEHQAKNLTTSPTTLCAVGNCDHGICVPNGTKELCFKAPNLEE


How the values were obtained:
[1] = biological target: T1, P467_RHIPU, purified, C-terminal …; assay: BLI; Kd and koff determination: His-tagged evasin immobilised on Ni-NTA biosensor (OctetRed), chemokine dilutions from 300 nM to 0.4 nM, 30 °C, same buffer as the screen; reference protein subtracted; 1:1 model with global fit, or steady state; each experiment once; conditions: both partners purified
[2] = biological target: T2, P991_AMBCA, purified, C-terminal …; assay: as above; conditions: both partners purified

Binder | binding result [1] | binding result [2] | dissociation half-life [2] [h]
CCL5 (ligand, human, UniProt P13501 24-91, looked up, source: bought: Peprotech) SPYSSDTTPCCFAYIARPLPRAHIKEYFYTSGKCSNPAVVFVTRKNRQVCANPEKKWVREYINSLEMS | binds | binds | 
CCL3 (ligand, human, UniProt P10147 24-92, looked up, source: bought: Peprotech) SLAADTPTACCFSYTSRQIPQNFIADYFETSSQCSKPGVIFLTKRSRQVCADPSEEWVQKYVSDLELSA | binds |  | 
CCL7 (ligand, source: bought: Peprotech) not shown |  |  | 2.4
CCL11 (ligand, source: bought: Peprotech) not shown | binds |  | 
CCL8 (ligand, human, UniProt P80075 24-99, looked up, source: bought: Peprotech) QPDSVSIPITCCFNVINRKIPIQRLESYTRITNIQCPKEAVIFKTKRGKEVCADPKERWVRDSMKHLDQIFQNLKP | binds |  | 
CCL18 (ligand, human, UniProt P55774 21-89, looked up, source: bought: Peprotech) AQVGTNKELCCLVYTSWQIPQKFIVDYSETSPQCPKPGVILLTKRGRQICADPNKKWVQKYISDLKLNA | binds | binds | 
CCL1 (ligand, human, UniProt P22362 24-96, looked up, source: bought: Peprotech) KSMQVPFSRCCFSFAEQEIPLRAILCYRNTSSICSNEGLIFKLKRGKEACALDTVGWVQRHRKMLRHCPSKRK | binds |  | 

Reference: publication PMC5487423, “Yeast surface display identifies a family of evasins from ticks with novel polyvalent CC chemokine-binding activities” (Scientific Reports, 2017)
